{"source": "patent US20080081047A1", "binders": {"B1": {"name": "F26G7 (antibody, V domains shown)", "VH": "VELLESGTVLARPGASVKMSCEASGYTFTTYWMHWIKQRPGQGLEWIGAIYPGNSDTTYNQKFKGKAKLTAVTSTSTAYMELSSLTNEDSAVYYCTREGIPQLLRTMDYWGQGTSVTVSS", "VL": "ELVMTQSPSSLSASLGERVSLTCRASQEISGYLSWLQQKPDGTIKRLIYAASTLDSGVPKRFSGSRSGSDYSLTISSLESEDFADYYCLQYISYPWTFGGGTKLEIKR"}, "B2": {"name": "F26G3 (antibody, V domains shown)", "VH": "EVRLQQSGPELVKPGASVKISCKTSGYTFTEYTMHWVKQSHGKNLEWIGGINPNNGGTTYNQKFKGKATLTVDKSSNTAYMELRSLTSEDSAVYYCSRGDYGTSYGYFDVWGAGTTVTVSS", "VL": "DILMTQSPTSFAVSLGQRATISCRTSQSVSTSSYSYMHWYQQKPGQPPKLLIKYASNLESGVPARFSGSGSGSDFTLNIHPVEEGDTATYYCQHSWEIPCAFGGGTKLEIKR"}, "B3": {"name": "F26G9 (antibody, V domains shown)", "VH": "VQLLESGTVLARPGASVKMSCKASGYSFTSYWMHWVKQRPGQGLEWIGAIYPGNSDTSYNQKFKGKAKLTAVTSASTAYMELSSLTNEDSAVYYCTRSVYYGYGYFDVWGAGTTVTVSS", "VL": "DILMTQSHKCMSTSVGDRVSITCKASQDVSTAVVWYQQKPGQFPKLLIYWASTRHTGVPDRFTGSGSGTDYTLTISSVQAEDLALYYCQQHYTTPYTFGGGTKLEIKR"}, "B4": {"name": "F26G10 (antibody, V domains shown)", "VH": "EVQLEESGTVLARPGASVKMSCKASGYSFTSYWMHWVKQRPGQGLDWIGAIYPENSDTSYNQKFKGKAKLTAVTSASTAYMEHSSLTNEDSAVYYCTRSVYYGYGYFDVWGAGTTVTVSS", "VL": "DILMTQSHKFMSTSVGDRVSITCKASQDVSTAVAWYQQKPGQSPKLLIYWASTRHTGVPDRFTGSGSGTDYTLTISSVQAEDLALYYCQQHYSTPYTFGGGTKLEIKR"}}, "key": {"[1]": {"target": "SARS-HCoV antigen(s) of unknown identity (purified whole virus, infected Vero cell lysate or infected Vero cells)", "assay": "ELISA, virus heated 100 C 10 min, coated at 32 ng/well"}, "[2]": {"target": "SARS-HCoV antigen(s) of unknown identity (purified whole virus, infected Vero cell lysate or infected Vero cells)", "assay": "ELISA, native gradient purified virus coated at 32 ng/well"}, "[3]": {"target": "SARS-HCoV antigen(s) of unknown identity (purified whole virus, infected Vero cell lysate or infected Vero cells)", "assay": "ELISA, OD on native virus against OD on heat-denatured virus"}}}
{"binder": "B1", "values": [{"measurement": "ELISA OD 405 nm, Denatured Lysate", "setting": "[1]", "value": 0.382, "unit": "OD 405 nm"}, {"measurement": "ELISA OD 405 nm, Viral Lysate (native)", "setting": "[2]", "value": 1.92, "unit": "OD 405 nm"}, {"measurement": "O.D. Reduction, Fold", "setting": "[3]", "value": 5, "unit": "fold"}, {"measurement": "O.D. Reduction, Percent", "setting": "[3]", "value": 80, "unit": "%"}]}
{"binder": "B2", "values": [{"measurement": "ELISA OD 405 nm, Denatured Lysate", "setting": "[1]", "value": 0.276, "unit": "OD 405 nm"}, {"measurement": "ELISA OD 405 nm, Viral Lysate (native)", "setting": "[2]", "value": 1.25, "unit": "OD 405 nm"}, {"measurement": "O.D. Reduction, Fold", "setting": "[3]", "value": 4.5, "unit": "fold"}, {"measurement": "O.D. Reduction, Percent", "setting": "[3]", "value": 78, "unit": "%"}]}
{"binder": "B3", "values": [{"measurement": "ELISA OD 405 nm, Denatured Lysate", "setting": "[1]", "value": 0.278, "unit": "OD 405 nm"}, {"measurement": "ELISA OD 405 nm, Viral Lysate (native)", "setting": "[2]", "value": 1.34, "unit": "OD 405 nm"}, {"measurement": "O.D. Reduction, Fold", "setting": "[3]", "value": 4.8, "unit": "fold"}, {"measurement": "O.D. Reduction, Percent", "setting": "[3]", "value": 79, "unit": "%"}]}
{"binder": "B4", "values": [{"measurement": "ELISA OD 405 nm, Denatured Lysate", "setting": "[1]", "value": 0.29, "unit": "OD 405 nm"}, {"measurement": "ELISA OD 405 nm, Viral Lysate (native)", "setting": "[2]", "value": 1.26, "unit": "OD 405 nm"}, {"measurement": "O.D. Reduction, Fold", "setting": "[3]", "value": 4.3, "unit": "fold"}, {"measurement": "O.D. Reduction, Percent", "setting": "[3]", "value": 77, "unit": "%"}]}
